Laboratory results reported in US20250250357A1 (NANJING ZAIMING PHARMACEUTICAL, published 2025).

T1: human MSLN-R1-his protein (human, UniProt Q13421 296-390)
T1 construct: also called hMSLN-R1-his; human MSLN-R1 protein; not shown: His tag
T1 chain: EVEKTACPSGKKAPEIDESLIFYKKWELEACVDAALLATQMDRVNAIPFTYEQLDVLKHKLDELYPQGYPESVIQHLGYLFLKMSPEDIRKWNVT

T2: monkey MSLN full-length protein (NCBI: XP_028696439.1) expressed on HEK293T-monkey MSLN cells (monkey)
T2 construct: Whole encoded precursor
T2 chain: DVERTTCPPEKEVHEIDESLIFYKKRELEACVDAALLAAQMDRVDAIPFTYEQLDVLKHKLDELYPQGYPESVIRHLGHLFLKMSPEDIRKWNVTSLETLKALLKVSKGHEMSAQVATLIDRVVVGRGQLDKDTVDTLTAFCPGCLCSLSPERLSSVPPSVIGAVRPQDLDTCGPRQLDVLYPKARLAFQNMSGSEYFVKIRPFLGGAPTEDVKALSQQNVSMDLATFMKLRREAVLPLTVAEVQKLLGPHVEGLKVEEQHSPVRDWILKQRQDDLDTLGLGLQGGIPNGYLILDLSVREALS


Assays:
[1] = target: T3, human MSLN-FL-his protein (human, UniProt Q13421 296-580); test: ELISA, coated antigen; antibody 1 nM
T3 construct: also called hMSLN-FL-his; human MSLN full-length protein; not shown: His tag

[2] = target: T1, human MSLN-R1-his protein; test: ELISA, coated antigen; antibody 1 nM
Description: (§1) The plate was sealed with a plastic film and incubated at 4° C. overnight. The next day, the plate was washed twice with PBST, and a blocking buffer [PBS+2% (w/w) BSA] was added for blocking at room temperature for 2 h. The blocking buffer was discarded, and a chimeric antibody or negative control antibody serially diluted from 100 nM was added at 50 μL/well. After incubation at 37° C. for 2 h, the plate was washed 3 times with PBST. […] After incubation at 37° C. for 2 h, the plate was washed 5 times with PBST. A TMB substrate was added at 50 μL/well for incubation at room temperature for 5-10 min, and then a stop solution (1.0 N HCl) was added at 50 μL/well.

[3] = target: T3, human MSLN-FL-his protein; test: ELISA, coated antigen; antibody 10 nM
Description: as §1

[4] = target: T1, human MSLN-R1-his protein; test: ELISA, coated antigen; antibody 10 nM
Description: as §1

[5] = target: T3, human MSLN-FL-his protein; test: ELISA, coated antigen; antibody 0.1 nM
Description: as §1

[6] = target: T3, human MSLN-FL-his protein; test: ELISA, coated antigen; antibody 100 nM
Description: as §1

[7] = target: T1, human MSLN-R1-his protein; test: ELISA, coated antigen; antibody 0.1 nM
Description: as §1

[8] = target: T1, human MSLN-R1-his protein; test: ELISA, coated antigen; antibody 100 nM
Description: as §1

[9] = target: T3, human MSLN-FL-his protein; test: ELISA, coated antigen; antibody 0.01 nM
Description: as §1

[10] = target: T1, human MSLN-R1-his protein; test: ELISA, coated antigen; antibody 0.01 nM
Description: as §1

[11] = target: T3, human MSLN-FL-his protein; test: ELISA, coated antigen; antibody 0.001 nM
Description: as §1

[12] = target: T1, human MSLN-R1-his protein; test: ELISA, coated antigen; antibody 0.001 nM
Description: as §1

[13] = target: T3, human MSLN-FL-his protein; test: ELISA, coated antigen; antibody 0.0001 nM
Description: as §1

[14] = target: T1, human MSLN-R1-his protein; test: ELISA, coated antigen; antibody 0.0001 nM
Description: as §1

[15] = target: T3, human MSLN-FL-his protein; test: ELISA, coated antigen; no antibody (blank, column 'none')
Description: as §1

[16] = target: T1, human MSLN-R1-his protein; test: as above
Description: as §1

[17] = target: T4, human MSLN protein endogenously expressed on OVCAR3 tumor cells (human, UniProt Q13421 296-598); test: FACS on OVCAR3 cells
T4 construct: whole, on cells; Endogenous target on OVCAR3 cells; kept apart from the recombinant full-length construct; also called mesothelin
Description: (§2) The desired cells were expanded to the logarithmic growth phase in a T-75 cell culture flask. […] After the cells from the previous step were subjected to cell counting, the cell pellet was resuspended to 2×10⁶ cells/mL in a blocking buffer of [PBS+2% (w/w) BSA] and added into a 96-well FACS reaction plate at 50 μL/well. A chimeric antibody (a sample to be tested) was added at 50 μL/well, and the plate was incubated on ice for 2 h. […] After the plate was centrifuged and washed 5 times with a PBST buffer, assay and analysis were performed by FACS (FACS CantoII, purchased from BD). Data analysis was performed by software (Flowjo) to obtain the mean fluorescence intensity (MFI) of the cells.

[18] = target: T5, human MSLN full-length protein (NCBI: AAH09272.1) expressed on HEK293T-hMSLN-B8 cells (human, UniProt Q13421 296-598); test: FACS on HEK293T-hMSLN-B8 cells
T5 construct: Whole encoded precursor

[19] = target: T6, human MSLN-R3 protein (Met487-Ser606 of NCBI AAH09272.1) expressed on HEK293T-hMSLN-R3 cells (human, UniProt Q13421 487-606); test: FACS on HEK293T-hMSLN-R3 cells
T6 construct: also called Region3
Description: as §2

[20] = target: T2, monkey MSLN full-length protein (NCBI: …); test: FACS on HEK293T-monkey MSLN cells
Description: as §2

T6 sequence (Q13421 495-614): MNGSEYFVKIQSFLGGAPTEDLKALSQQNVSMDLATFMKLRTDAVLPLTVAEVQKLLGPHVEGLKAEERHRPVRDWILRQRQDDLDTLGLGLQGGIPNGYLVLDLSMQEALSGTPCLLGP
T5 sequence (Q13421 other isoform, or with tags, fused parts or gaps limits assumed): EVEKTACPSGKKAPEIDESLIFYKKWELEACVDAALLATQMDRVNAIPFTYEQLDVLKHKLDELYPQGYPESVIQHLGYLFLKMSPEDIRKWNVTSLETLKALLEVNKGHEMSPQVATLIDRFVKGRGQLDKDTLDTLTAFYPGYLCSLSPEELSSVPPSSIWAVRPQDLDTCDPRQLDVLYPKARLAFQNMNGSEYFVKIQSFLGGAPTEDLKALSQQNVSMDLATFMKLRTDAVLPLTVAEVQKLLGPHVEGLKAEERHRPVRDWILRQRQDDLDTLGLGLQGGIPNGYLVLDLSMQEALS
T4 sequence (Q13421 other isoform, or with tags, fused parts or gaps): as the sequence (Q13421 other isoform, or with tags, fused parts or gaps limits assumed) above, with P14R counted along it

OD450 [1] | OD450 [2] | OD450 [3] | OD450 [4] | OD450 [5] | OD450 [6] | OD450 [7] | OD450 [8] | OD450 [9] | OD450 [10] | OD450 [11] | OD450 [12] | OD450 [13] | OD450 [14] | OD450 [15] | OD450 [16] | Binder | other results
2.31 | 0.03 | 2.38 | 0.04 | 1.76 | 2.65 | 0.03 | 0.06 | 0.47 | 0.05 | 0.1 | 0.04 | 0.06 | 0.03 | 0.05 | 0.05 | S009-F1.59.1 human-murine chimeric antibody (antibody, human IgG1, kappa, V domains shown, Chimeric IgG1/kappa) VH: EVKLEGSGGGLVQPGGSMMLSCVATGFTFSSYWMNWVRQSPDRGLEWVAEIRLKSNGFAAFYAESVKGRFTISRDDSKSSVYLQMNNLRTEDTGIYYCTYFVHWGQGILVTVSE VL: DIVLTQSPTSLAVSLGQRATISCRTSESVEYFGTILIQWYQQKPGQPPKLLIFGASNVESGVPARFSGSGSGTDFSLNIHPVEEEDIAMYFCQQNRKVPYTFGGGTTLELKR | –
– | – | – | – | – | – | – | – | – | – | – | – | – | – | – | – | S009-F1.56.1 (antibody, human IgG1, kappa, V domains shown, human-murine chimeric antibody, human IgG1/kappa constant regions) VH: EVQLQQSGAEVVKPGASVKLSCTASGFNIRHTYMHWVKQRPEQGLEWIGRIDPANGNTEYDPKFQGKATITADTSSNTAYLQLSSLTSEDTAVYYCARDGWYIDVWGAGTTVTVSS VL: DIVMSQSPSSLAVSVGEKVTMSCKSSQSLLYSNNQKNYLAWYQQKPGQSPKLLIYWASTRESGVPDRFTGSGSGTDFTLTISSVKAEDLAVYYCQRYYSYPWTFGGGTKLEIKR | EC50 [17]: 670 pM; Maximum mean fluorescence intensity [17]: 11700; EC50 [18]: 1590 pM; Maximum mean fluorescence intensity [18]: 96300; Maximum mean fluorescence intensity [19]: 363; binding result [19]: no binding; EC50 [20]: 790 pM; Maximum mean fluorescence intensity [20]: 43100
2.3 | 0.05 | 2.44 | 0.06 | 1.83 | 2.74 | 0.04 | 0.12 | 0.55 | 0.03 | 0.11 | 0.05 | 0.05 | 0.04 | 0.05 | 0.05 | S009-F1.56.1 human-murine chimeric antibody (antibody, human IgG1, kappa, V domains shown, Chimeric IgG1/kappa) VH: EVQLQQSGAEVVKPGASVKLSCTASGFNIRHTYMHWVKQRPEQGLEWIGRIDPANGNTEYDPKFQGKATITADTSSNTAYLQLSSLTSEDTAVYYCARDGWYIDVWGAGTTVTVSS VL: DIVMSQSPSSLAVSVGEKVTMSCKSSQSLLYSNNQKNYLAWYQQKPGQSPKLLIYWASTRESGVPDRFTGSGSGTDFTLTISSVKAEDLAVYYCQRYYSYPWTFGGGTKLEIKR | –
2.27 | 0.04 | 2.31 | 0.05 | 1.75 | 2.74 | 0.05 | 0.05 | 0.49 | 0.04 | 0.11 | 0.05 | 0.06 | 0.04 | 0.06 | 0.04 | S009-F1.2.12 human-murine chimeric antibody (antibody, human IgG1, kappa, V domains shown, Chimeric IgG1/kappa) VH: QVQLKQTGPGLVQPSQSLSITCTVSGFSLTNYAVHWVRQSPGKGLEWLGVIWSGGATDYNTVFISRLSISKDNSKSQVFFKVNSLQVDDTAIYYCARTGSGYAMDYWGQGTSVTVSS VL: DIVLTQSPATLSVTPGDRVSLSCRTSHNVNTYLHWYQQKSHESPRLLIKYASQSISEIPSRFSGSGSGTNFTLSINSVETEDFGMYFCHQTNRWPLTFGAGTKLELKR | –
2.03 | 0.03 | 2.42 | 0.04 | 0.82 | 2.51 | 0.03 | 0.07 | 0.15 | 0.05 | 0.06 | 0.04 | 0.05 | 0.04 | 0.05 | 0.05 | S009-F1.57.1 human-murine chimeric antibody (antibody, human IgG1, kappa, V domains shown, Chimeric IgG1/kappa) VH: EAQLQQSGAVFVKPGASVKLSCTASGFSSKDIFLHWVKQRPEQGLEWIGRIDPASDNTIYDPKFQDRATITSDRSSNTAYLQFSSLTSEDTAVYFCLYFDFWGQGTTLTVSS VL: DIVMTQATPSISVTPGESVSISCRSSESLLHSNGNTYLYWFLQRPGQSPQLLIYRMSNLASGVPDRFSVSGSGTAFTLRISRVEAEDVGVYYCMQHLEYPLTFGAGTKLELKR | –
1.43 | 0.05 | 2.05 | 0.07 | 0.3 | 2.59 | 0.05 | 0.27 | 0.08 | 0.04 | 0.06 | 0.04 | 0.06 | 0.05 | 0.06 | 0.05 | S009-F1.7.14 human-murine chimeric antibody (antibody, human IgG1, kappa, Chimeric IgG1/kappa) heavy: not shown light: QIVLTQSPAIMSASPGEKVTISCSASSSVSYMYWYQQKPGSSPKPWISRTSNLASGVPARFSGSGSGTSYSLTISSMEAEDAATYYCQQYHSYPPTLGAGTKLELKRTVAAPSVFIFPPSDEQLKSGTASVVCLLNNFYPREAKVQWKVDNALQSGNSQESVTEQDSKDSTYSLSSTLTLSKADYEKHKVYACEVTHQGLSSPVTKSFNRGEC | –
2.3 | 0.03 | 2.44 | 0.04 | 1.67 | 2.57 | 0.03 | 0.05 | 0.43 | 0.04 | 0.1 | 0.05 | 0.06 | 0.04 | 0.06 | 0.05 | S009-F1.25.10 human-murine chimeric antibody (antibody, human IgG1, kappa, V domains shown, Chimeric IgG1/kappa) VH: EVQLQQSGPELVKPGASLKISCKASGYSFTDYTMNWVKQSHGKNLEWIGLFNPYNGGISYNQKFKGKATLTVDKSSNTAYMELLSLTSDDSAVYFCARDGRGGFYAMDYWGQGTSVTVSS VL: DIQMTQTTSSLSASLGDRVTISCRASQDISIYLNWYQQKPDGPVKLLIYYTSRLHSGVPSRFSGSGSGTDFSLTISNLEQEDIATYFCQQGYTLPPWTFGGGTKLEIKR | –
2.22 | 0.04 | 2.27 | 0.04 | 1.62 | 2.48 | 0.04 | 0.06 | 0.41 | 0.04 | 0.09 | 0.04 | 0.06 | 0.04 | 0.06 | 0.04 | S009-F1.35.24 human-murine chimeric antibody (antibody, human IgG1, kappa, V domains shown, Chimeric IgG1/kappa) VH: EVQLQQSEPELVKPGASVRISCKASGYSFTDYYMHWVKQSPENRLEWIGEINPSTGGTSYNPKFKDKATLTVDKSSSTAYMQLKSLTSEESAVYYCTRYHYYGSSSYVMDYWGQGTSVTVSS VL: QIVLTQSPAILSASPGERVTMTCSASSSVYHMHWFQQKSGTSPKRWVYDTSKLASGVPARFSGSGSGTSYSLTISSMEAEDAATYYCQHWRTNPLTFGAGTKLELKR | –
